{"source": "patent US20200397827A1", "about": "“CHONDROCYTE PROLIFERATION PROMOTER, CHONDROCYTE PROLIFERATION PROMOTION METHOD, SCREENING METHOD FOR CHONDROCYTE PROLIFERATION PROMOTERS” (Tokyo University of Science Foundation, priority 2018, published 2020)", "molecules": {"B1": {"name": "adiponectin: adiponectin (BioVendor), protein of the CTRP family; human amino acid sequence SEQ ID NO: 1 (protein, listed as Homo sapiens)", "chain": "MLLLGAVLLLLALPGHDQETTTQGPGVLLPLPKGACTGWMAGIPGHPGHNGAPGRDGRDGTPGEKGEKGDPGLIGPKGDIGETGVPGAEGPRGFPGIQGRKGEPGEGAYVYRSAFSVGLETYVTIPNMPIRFTKIFYNQQNHYDGSTGKFHCNIPGLYYFAYHITVYMKDVKVSLFKKDKAMLFTYDQYQENNVDQASGSVLLHLEVGDQVWLQVYGEGERNGLYADNDNDSTFTGFLLYHDTN"}, "B2": {"name": "recombinant human CTRP3: recombinant human CTRP3 (Aviscera Bioscience), C1q/TNF-related protein family; amino acid sequence SEQ ID NO: 2 (protein, listed as Homo sapiens)", "chain": "MLWRQLIYWQLLALFFLPFCLCQDEYMESPQTGGLPPDCSKCCHGDYSFRGYQGPPGPPGPPGIPGNHGNNGNNGATGHEGAKGEKGDKGDLGPRGERGQHGPKGEKGYPGIPPELQIAFMASLATHFSNQNSGIIFSSVETNIGNFFDVMTGRFGAPVSGVYFFTFSMMKHEDVEEVYVYLMHNGNTVFSMYSYEMKGKSDTSSNHAVLKLAKGDEVWLRMGNGALHGDHQRFSTFAGFLLFETK"}, "B3": {"name": "recombinant human CTRP6: recombinant human CTRP6 (Aviscera Bioscience), C1q/TNF-related protein family; amino acid sequence SEQ ID NO: 3 (protein, listed as Homo sapiens)", "chain": "MQWLRVRESPGEATGHRVTMGTAALGPVWAALLLFLLMCEIPMVELTFDRAVASGCQRCCDSEDPLDPAHVSSASSSGRPHALPEIRPYINITILKGDKGDPGPMGLPGYMGREGPQGEPGPQGSKGDKGEMGSPGAPCQKRFFAFSVGRKTALHSGEDFQTLLFERVFVNLDGCFDMATGQFAAPLRGIYFFSLNVHSWNYKETYVHIMHNQKEAVILYAQPSERSIMQSQSVMLDLAYGDRVWVRLFKRQRENAIYSNDFDTYITFSGHLIKAEDD"}}, "type_in_all_cases": "cell-based, mouse", "key": {"[1]": {"tested_on": "ATDC5 cells", "assay": "Cell proliferation of ATDC5 cells in the presence or absence of AdipoR1 blocker", "experimental": "ATDC5 cells were seeded into a 12-well plate at a cell density of 1×10^4/well and cultured in the presence or absence of 10 μg/ml AdipoR1 blocker (GeneTex) and in the presence or absence of 100 ng/ml recombinant human CTRP6 (Aviscera Bioscience) for 2 days (all n=4). As a medium, a HAM's F-12 medium containing 5% FBS and 1% penicillin/streptomycin was used.\nFurthermore, 100 ng/ml adiponectin (BioVendor), 100 ng/ml AdipoRon (AdipoGen), or 50 ng/ml recombinant human CTRP3 (Aviscera Bioscience) was used instead of 100 ng/ml recombinant human CTRP6 to culture in the same manner as described above (all n=4). Meanwhile, when the AdipoRon was used, a culture period was 1 day.\nAfter culturing, the number of cells was counted with a hemocytometer."}, "[2]": {"tested_on": "ATDC5 cells", "assay": "Effect of MAPK inhibitor on cell proliferation of chondrocyte", "details": "FIG. 3C", "experimental": "ATDC5 cells were seeded into a 48-well plate at a cell density of 2×10^4/well and cultured in the presence or absence of 50 ng/ml recombinant human CTRP6 (Aviscera Bioscience) for 2 days. A HAM's F-12 medium containing 5% FBS and 1% penicillin/streptomycin was used as a medium, and a carrier (DMSO), 1 μM ERK1/2 inhibitor (U0126, Sigma), 1 μM JNK inhibitor (SP600125, Sigma), or 1 μM p38 inhibitor (SB239063, Sigma) was further added thereto (all n=4).\nAfter 2 day-culture, the number of cells was counted with a hemocytometer."}, "[3]": {"tested_on": "ATDC5 cells", "assay": "Cell proliferation of ATDC5 cells with adiponectin receptor siRNA introduced, recombinant human CTRP3", "details": "50 ng/ml, 2 days, FIG. 6A", "experimental": "AdipoR1 siRNA, AdipoR2 siRNA, control siRNA-1, AdipoR3 siRNA, AdipoR4 siRNA, or control siRNA-2 was introduced (transfected) into ATDC5 cells in the same manner as in Test Example 4 (1).\n(§1) Forty-eight hours after the introduction of the siRNAs, the ATDC5 cells were seeded into a 48-well plate at a cell density of 2×10^4/well and cultured in the presence or absence of 50 ng/ml recombinant human CTRP3 (Aviscera Bioscience) for 2 days (all n=4). After that, the number of cells was counted with a hemocytometer."}, "[4]": {"tested_on": "ERK1/2", "assay": "ERK phosphorylation in ATDC5 cells with adiponectin receptor siRNA introduced, western blotting", "details": "10 ng/ml, 15 min", "experimental": "ATDC5 cells into which the siRNA had been introduced were seeded into a 60 mm Petri dish at a cell density of 1×10^6/well and cultured in a serum-free HAM's F-12 medium for 4 hours. Then, the cells were washed with PBS and then cultured in a serum-free HAM's F-12 medium containing 10 ng/ml recombinant human CTRP6 (Aviscera Bioscience) for 15 min. Then, the cells were washed with a phosphatase-inhibiting buffer supplemented with PhosSTOP (Sigma) and then lysed with a lysis buffer (0.1% TritonX-100, 100 mM NaCl, 50 mM Tris-HCl (pH 7.5)). Western blotting analysis was performed in the same manner as in Test Example 3 (2)."}, "[5]": {"tested_on": "ATDC5 cells", "assay": "Cell proliferation of chondrocyte line, cell count with hemocytometer", "details": "0, 100, 500 ng/ml, 4 and 7 day-culture, FIG. 3A", "experimental": "In Test Example 3, a function of CTRP6 was analyzed using a mouse chondrocyte line ATDC5.\nATDC5 cells were seeded into a 12-well plate at a cell density of 5×10^4/well and cultured in the presence of various concentrations (0, 100, 500 ng/ml; all n=3) of recombinant human CTRP6 (Aviscera Bioscience). As a medium, a HAM's F-12 medium containing 5% FBS and 1% penicillin/streptomycin was used.\nAfter 4 and 7 day-culture, the number of cells was counted with a hemocytometer."}, "[6]": {"tested_on": "primary chondrocytes of Clqtnf6−/− mice", "assay": "Chondrogenesis of primary chondrocytes (Alcian blue staining)", "details": "0, 2.5, 5, 10 μg/ml, 7 days, FIG. 2B", "experimental": "Costal cartilage tissues from neonates (5 to 6 day-old) of the Clqtnf6^−/− mice and the wild-type mice were enzymatically digested with DMEM containing 0.5 mg/ml collagenase D to thereby obtain primary chondrocytes. Then, 2×10^5 cells were suspended into 10 μL of DMEM containing 10% FCS, seeded into a 24-well plate, and cultured at 37° C. for 2 hours (both n=3). Then, DMEM containing 10% FCS was added thereto at a volume of 500 μL per well and culturing was continued for 7 days. Then, the cells were fixed with 10% neutral buffered formalin, washed with 0.1 N HCl, and then stained with a 1% Alcian blue 8GX solution (Sigma-Aldrich) in order to confirm chondrogenesis.\nIn the same manner as described above, primary chondrocytes were obtained from the Clqtnf6^−/− mice, and then 2×10^5 cells were suspended into 10 μL of DMEM containing 10% FCS, seeded into a 24-well plate, and cultured at 37° C. for 2 hours. Then, DMEMs containing 10% FCS and various concentrations (0, 2.5, 5, 10 μg/ml; all n=3) of recombinant human CTRP6 (Aviscera Bioscience) were added thereto at a volume of 500 μL per well and culturing was continued for 7 days. Then, the cells were fixed with 10% neutral buffered formalin, washed with 0.1 N HCl, and then stained with a 1% Alcian blue 8GX solution (Sigma-Aldrich) in order to confirm chondrogenesis."}, "[7]": {"tested_on": "ERK1/2", "assay": "Phosphorylation of MAPK, western blotting", "details": "ATDC5; 10 ng/ml; 1, 5, 15 or 30 min; FIG. 3B", "experimental": "ATDC5 cells were seeded into a 60 mm Petri dish at a cell density of 1×10^6/well and cultured in a serum-free HAM's F-12 medium for 4 hours. Then, the resultant was washed with PBS and then cultured in a serum-free HAM's F-12 medium containing 10 ng/ml recombinant human CTRP6 (Aviscera Bioscience) for 1 min, 5 min, 15 min, or 30 min. Then, the cells were washed with a phosphatase-inhibiting buffer supplemented with PhosSTOP (Sigma) and then lysed with a lysis buffer (0.1% TritonX-100, 100 mM NaCl, 50 mM Tris-HCl (pH 7.5)).\nThen, the resultant cell lysate was subjected to electrophoresis on a 12.5% SDS-PAGE gel and proteins were transferred onto a PVDF membrane. The membrane onto which the proteins had been transferred was blocked by shaking in 5% BSA/TBS at room temperature for 1 hour. After blocking, the membrane was shaken in the presence of a primary antibody (rabbit monoclonal antibody) at room temperature for 1 hour to thereby undergo a primary antibody reaction. […] Intensity of each band was quantified with ImageJ software (NIH)."}, "[8]": {"tested_on": "ATDC5 cells", "assay": "Cell proliferation of ATDC5 cells with adiponectin receptor siRNA introduced, recombinant human CTRP6", "details": "100 ng/ml, 1 day", "experimental": "ATDC5 cells were seeded into a 24-well plate at a cell density of […] and cultured in a HAM's F-12 medium containing 2.5% FBS for 24 hours. After culturing, 30 pmol of AdipoR1 siRNA, 30 pmol of AdipoR2 siRNA, 30 pmol of control siRNA-1, 6 pmol of AdipoR3 siRNA, 6 pmol of AdipoR4 siRNA, or 6 pmol of control siRNA-2 was introduced (transfected) thereinto and culturing was continued for 48 hours. Lipofectamine RNAiMAX (Invitrogen) was used to introduce the siRNAs.\nMeanwhile, the AdipoR3 siRNA, the AdipoR4 siRNA, and the control siRNA-2 were purchased from IDT Teck (TriTECTa RNAi Kit). Base sequences of the AdipoR1 siRNA, the AdipoR2 siRNA, and the control siRNA-1 were as follows:\nas §1, with “100” for “50”, “CTRP6” for “CTRP3”, “1 day” for “2 days”"}, "[9]": {"details": "100 ng/ml, 2 days, FIGS. 5A, 5B"}}}
{"molecule": "O=C(COc1ccc(C(=O)c2ccccc2)cc1)NC1CCN(Cc2ccccc2)CC1", "note": "[AdipoRon, reference compound]", "values": [{"measurement": "number of cells (cell proliferation)", "setting": "[1]; 100 ng/ml, culture period 1 day, FIG. 5C", "result": "facilitated cell proliferation"}]}
{"molecule": "N#CC(=C(/N)Sc1ccccc1N)/C(C#N)=C(/N)Sc1ccccc1N", "note": "[ERK1/2 inhibitor, U0126, reference compound]", "values": [{"measurement": "number of cells (cell proliferation) with MAPK inhibitor added", "setting": "[2]; 1 μM inhibitor, presence or absence of 50 ng/ml recombinant human CTRP6, 2 days", "result": "inhibited cell proliferation"}]}
{"molecule": "B1", "values": [{"measurement": "number of cells (cell proliferation)", "setting": "[1]; [9]", "result": "facilitated cell proliferation"}]}
{"molecule": "B2", "values": [{"measurement": "number of cells (cell proliferation), AdipoR2 siRNA introduced", "setting": "[3]", "result": "facilitation of cell proliferation was not confirmed"}]}
{"molecule": "B3", "values": [{"measurement": "number of cells (cell proliferation)", "setting": "[1]; [9]", "result": "facilitated cell proliferation"}, {"measurement": "number of cells (cell proliferation)", "setting": "[1]; 2 days, second statement of b158 (FIG. 5D, 50 ng/ml recombinant human CTRP3)", "result": "also facilitated"}, {"measurement": "number of cells (cell proliferation)", "setting": "[2]; 50 ng/ml, 2 days", "result": "facilitated cell proliferation"}, {"measurement": "phosphorylation of ERK1/2, AdipoR1 siRNA introduced", "setting": "[4]; ATDC5 with AdipoR1 siRNA, FIG. 4C", "result": "phosphorylation of ERK1/2 was not facilitated"}, {"measurement": "phosphorylation of ERK1/2, AdipoR4 siRNA introduced", "setting": "[4]; ATDC5 with AdipoR4 siRNA, FIG. 4D", "result": "phosphorylation of ERK1/2 was not facilitated"}, {"measurement": "number of cells (cell proliferation)", "setting": "[5]", "result": "facilitated cell proliferation"}, {"measurement": "chondrogenesis (intensity of Alcian blue stained cells)", "setting": "[6]", "result": "chondrogenesis was promoted in a recombinant human CTRP6 concentration-dependent manner"}, {"measurement": "phosphorylation of MAPKs (ERK1/2)", "setting": "[7]", "result": "facilitated phosphorylation of ERK1/2"}, {"measurement": "number of cells (cell proliferation), AdipoR1 siRNA introduced", "setting": "[8]; ATDC5 with AdipoR1 siRNA, FIG. 4A", "result": "facilitation of cell proliferation was not confirmed"}, {"measurement": "number of cells (cell proliferation), AdipoR4 siRNA introduced", "setting": "[8]; ATDC5 with AdipoR4 siRNA, FIG. 4B", "result": "facilitation of cell proliferation was not confirmed"}]}
